Target: T1, BCMA (TNFRSF17), human plasma membrane protein array (human, UniProt Q02223 1-184)
T1 construct: also called B-cell maturation antigen
T1 sequence (looked up): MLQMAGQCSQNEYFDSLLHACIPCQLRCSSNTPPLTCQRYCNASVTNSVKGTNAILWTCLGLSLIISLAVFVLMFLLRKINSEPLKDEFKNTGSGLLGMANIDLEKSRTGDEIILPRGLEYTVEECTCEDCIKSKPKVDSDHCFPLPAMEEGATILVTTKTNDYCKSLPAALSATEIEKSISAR
Assay: commercial human plasma membrane protein array

B1: anti-human BCMA single chain antibody variable fragment (scFv) (PI61) (scFv)
scFv: QVQLQESGGGVVQPGRSLRLSCAASGFTFSSYGMHWVRQAPGKGLEWVAVISYDGSNKYYADSVKGRFTISRDNSKNTLYLQMNSLRAEDTAVYYCGGSGYALHDDYYGLDVWGQGTLVTVSSGGGGSGGGGSGGGGSQSALTQPASVSGSPGQSITISCTGTSSDVGGYNYVSWYQQHPGKAPKLMIYDVSNRPSGVSNRFSGSKSGNTASLTISGLQAEDEADYYCSSYTSSSTLYVFGSGTKVTVL
notes: also called PI61 scFv
binding result: binds
